Here are results for two molecules from US20110171178A1 (CUREDM GROUP, published 2011).

The assay has as its target T1, HIP receptor (EXTL3) (human, UniProt O43909 1-919).
T1 construct: whole, on cells; Endogenous protein of PANC-1 cells, seen by immunostaining and Western blot; also called receptor for Human ProIslet Peptide
T1 sequence (looked up): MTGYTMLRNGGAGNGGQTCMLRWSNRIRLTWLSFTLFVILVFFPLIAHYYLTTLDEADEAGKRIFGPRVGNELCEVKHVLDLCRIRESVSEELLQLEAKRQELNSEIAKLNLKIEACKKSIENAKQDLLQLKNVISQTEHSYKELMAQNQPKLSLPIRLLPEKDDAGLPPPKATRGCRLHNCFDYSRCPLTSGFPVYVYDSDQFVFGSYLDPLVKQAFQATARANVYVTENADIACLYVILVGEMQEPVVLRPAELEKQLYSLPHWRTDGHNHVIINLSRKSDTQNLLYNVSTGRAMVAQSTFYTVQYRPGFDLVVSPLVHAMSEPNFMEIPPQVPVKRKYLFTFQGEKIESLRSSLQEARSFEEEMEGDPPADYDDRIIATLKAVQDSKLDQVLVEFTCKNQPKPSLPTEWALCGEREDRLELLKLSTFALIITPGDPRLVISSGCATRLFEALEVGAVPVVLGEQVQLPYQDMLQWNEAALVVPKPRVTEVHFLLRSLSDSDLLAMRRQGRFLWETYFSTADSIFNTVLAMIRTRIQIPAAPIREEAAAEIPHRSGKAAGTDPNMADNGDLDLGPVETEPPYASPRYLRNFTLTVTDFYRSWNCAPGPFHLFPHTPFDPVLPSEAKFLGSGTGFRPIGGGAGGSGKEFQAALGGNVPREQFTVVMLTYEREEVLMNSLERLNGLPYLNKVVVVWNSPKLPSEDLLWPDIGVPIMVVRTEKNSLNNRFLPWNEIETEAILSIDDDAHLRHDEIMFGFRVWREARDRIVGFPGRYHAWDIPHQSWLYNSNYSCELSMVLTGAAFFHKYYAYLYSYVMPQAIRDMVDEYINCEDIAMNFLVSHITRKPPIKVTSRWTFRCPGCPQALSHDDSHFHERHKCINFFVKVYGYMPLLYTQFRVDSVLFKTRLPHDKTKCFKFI
Nature of the assay: receptor immunostaining and trafficking in PANC-1 cells (indirect). The protocol:
The upper panels indicated by the Cy3 immunofluorescent staining of EXTL3 (red). In the lower panel of images the Cy3 immunostaining of EXTL3 has been overlaid with DAPI (blue) staining of the nuclei. Cells were grown in standard growth medium as a control and compared to cells grown serum-free medium (SFM) in the presence or absence of HIP. […] The cell borders are well-defined indicating surface expression of EXTL3 on the plasma membrane. The yellow arrows delineate the cell borders while the nuclei are shown in blue. The middle images are cells grown in SFM. EXTL3 is localized in the cytoplasm as indicated by cytoplasmic Cy3 staining. The green arrows show the lack of staining in the position of the nuclei. […] In the lower image of cells grown in SFM and HIP, the blue arrows indicate the position of the nuclei. In the lower image there is an overlap of EXTL3-Cy3 staining and nuclear DAPI staining that corroborates the nuclear localization of EXTL3 (blue arrows). Scale bar=20 μm in all images.

B1: HIP2Blocked (Ac-Ile-Gly-Leu-His-Asp-Pro-Thr-Gln-Gly-Thr-Glu-Pro-Asn-Gly-NH2) (peptide)
peptide: Ac-IGLHDPTQGTEPNG-NH2
notes: also called Optimized HIP2B
For B1, the binding result is “binds”.

B2: HIP2 (Human proIslet Peptide, Ile-Gly-Leu-His-Asp-Pro-Thr-Gln-Gly-Thr-Glu-Pro-Asn-Gly) (peptide)
peptide: IGLHDPTQGTEPNG
With B2, the binding result is reported as “binds”.
